The target in assay [1] is TRBC1 peptide (biotinylated) (human). Kind of assay: TRF assay, scFv on biotin-peptide/neutravidin plate.
Assay [2] addresses TRBC2 peptide (biotinylated) (human). The assay is described as above.

B1: CP_03_C12 (scFv, not shown: small tags and cut ends)
scFv: EVQLVQSGAEVKKPGASVKVSCKASGYTFTGYYMHWVRQAPGQGLEWMGWINPNSGGTNYAQKFQGRVTMTRDTSISTAYMELSSLRSEDTAVYYCARDTGPIDYWGQGTMVTVSSGGGGSGGGGSGGGASDIVMTQTPLSLSVTPGQPASISCKSSQSLLHSDGKTYLYWYLQKPGQPPQLLVYEVSNRFSGVPDKFSGSGSGTDFTLKISRVEAEDVGVYYCMQGIQLPPTFGGGTKVDIKRTAAA
B1: the TRBC1 Binding in assay [1] is 789 TRF units.

B2: CP_03_D05 (scFv, not shown: small tags and cut ends)
scFv: QVQLVESGAEVKKPGASVKVSCKASGYTFTGYYMHWVRQAPGQGLEWMGRINPNSGGTNYAQKFQGRVTMTRDTSISTAYMELSRLRSDDTAVYYCASPRGRGSAFDIWGQGTLVTVSSGGGGSGGGGSGGGASSYELTQPPSVSVSPGQTATISCSGDQLGGKYGHWYQKKPGQSPVLVLYQDRKRPAGIPERFSGSSSGNTITLTISGTQAVDEADYYCQAWDTNLGGVFGGGTKVTVLGQPAA
As to B2, the TRBC1 Binding in assay [1] stood at 762 TRF units.

B3: CP_03_H06 (scFv, not shown: small tags and cut ends)
scFv: QVQLVESGGGLVKPGGSLRLSCAASGFTFSDYYMSWIRQAPGKGLEWVSYISSSGSTIYYADSVEGRFTISRDNAKNSLYLQMNSLRTEDTAVYYCARARVGGMDVWGQGTMVTVSSGGGGSGGGGSGGGASNFMLTQPHSVSESPGKTVTISCTRSSGSIASNYVQWYQQRPGSSPTTVIYEDNQRPSGVPDRFSGSIDSSSNSASLTISGLKTEDEADYYCQSFDADNLHVVFGGGTKLTVLGQPAA
In assay [1], B3 gave a TRBC1 Binding of 391 TRF units.

B4: CP_03_D09 (scFv, not shown: small tags and cut ends)
scFv: EVQLVQSGAEVKKPGSSVKVSCEASGYTFTSYAISWVRQAPGQGLEWMGWMNPNSGNTGYAQKFQGRVTMTRNTSISTAYMELSSLRSEDTAVYYCARVSSYYGMDVWGQGTLVTVSSGGGGSGGGGSGGGASNFMLTQPLSVSESPGKTVTISCTRSSGSIASNYVQWYQQRPGSAPTTVIYEDNQRPSGVPDRFSGSIDSSSNSASLTISGLKTEDEADYYCQSYNSSNHWVFGGGTKVTVLGQPAA
B4 registered a TRBC1 Binding in assay [1] of 544 TRF units.

B5: CP_03_F10 (scFv, not shown: small tags and cut ends)
scFv: EVQLVESGAEVKKPGASVKVSCKASGYTFTGYYMHWVRQAPGQGLEWMGRINPNSGGTNYAQKFQGRVTMTRDTSISTAYMELSSLRSEDTAVYYCARFGERYAFDIWGQGTLVTVSSGGGGSGGGGSGGGASQSELTQPPSASGSPGQSVTISCTGTSTDVGAFHFVSWYQHTPGKAPKLLISEVRKRASGVPDRFSGSRSGNTASLTVSGLQSEDEADYFCSAYTGSNYVFGSGTKLTVLGQPAA
In the case of B5, the TRBC1 Binding in assay [1] stood at 1680 TRF units.

B6: CP_03_F09 (scFv, not shown: small tags and cut ends)
scFv: QMQLVQSGAEVKKPGASVKVSCKASGYTFASYYMHWVRQAPGQGLEWMGIINPSGGSTSYAQKFQGRVTMTRDTSTSTVYMELSRLRSDDTAVYYCASNRGGSYKSVGMDVWGQGTTVTVSSGGGGSGGGGSGGGASNFMLTQPQSVSESPGKTVTISCTRSSGNFASKYVQWYQQRPGSSPTTVIYENYQRPSGVPDRFSGSIDSSSNSATLTISGLKTEDEADYYCQSYDEVSVVFGGGTQLTVLGQPAA
Regarding B6, in assay [1], the TRBC1 Binding was 889 TRF units.

B7: CP_01_D10 (scFv, not shown: small tags and cut ends)
scFv: QVQLVESGGGLVQPGRSLRLSCAASGFTFSSYAMHWVRQAPGKGLEWVAVISYDGSSKYYADSVKGRFTISRDNSKNTLYLQMNSLRAEDTAVYYCAKGGGSFGAFDIWGQGTLVTVSSGGGGSGGGGSGGGASDIQMTQSPSSLSASVGDRVTITCRASQSISRYLNWYQQKPGKAPNLLIYAASSLQSGVPSRFSGSGSGTDFTLTISSLQPEDFATYYCQQYNSYPLTFGGGTKLEIKRTAAA
Molecule B7 had a TRBC2 Binding in assay [2] of 306 TRF units.

B8: CP_03_G09 (scFv, not shown: small tags and cut ends)
scFv: QVQLQQSGPGLVKPSQTLSLTCAISGDSVSSNSAAWNWIRQSPSRGLEWLGRTYYRSKWYNDYAVSVKSRITINPDTSKNQFSLQLNSVTPEDTAVYYCARDQWLANYYYYGMDVWGQGTLVTVSSGGGGSGGGGSGGGASSYELTQPLSVSVALGQTARITCGGNNIGSKNVHWYQQKPGQAPVLVIYRDNNRPSGIPERFSGSNSGNTATLTISKAQAGDEADYYCQVWDSNSWVFGGGTKLTVLGQPAA
For the molecule B8, in assay [1], the TRBC1 Binding stood at 979 TRF units.

B9: CP_03_E05 (scFv, not shown: small tags and cut ends)
scFv: EVQLVESGGGVVQPGGSLRLSCAASGFTFSSYAMSWVRQAPGKGLEWVSAISGSGGSTYYADSVKGRFSISRDNSKNTLYLQMNSLRAEDTAVYYCARTRSSGAFDIWGQGTLVTVSSGGGGSGGGGSGGGASNFMLTQPHSVSESPGKTVTISCTRSSGSIASKYVQWYQQRPGSSPTTVIYEDNQRPSGVPDRFSGSIDTSSNSASLTISGLRTEDEADYYCHSYDSNNHSVFGGGTKVTVLGQPAA
Consider B9, for which the TRBC1 Binding in assay [1] worked out at 1620 TRF units.

B10: CP_01_D12 (scFv, not shown: small tags and cut ends)
scFv: EVQLLESGGGVVQPGRSLRLSCAASGFTFSSYAMHWVRQAPGKGLEWVAVISYDGSNKYYADSVKGRFTISRDNSKNTLYLQMNSLRAEDTAVYYCAKGGDTYGFLDNWGQGTMVTVSSGGGGSGGGGSGGGASDIQMTQSPSTLSASVGDRVTITCRASQSISSWLAWYQQKPGKAPKLLIYKASSLESGVPSRFSGSGSGTDFTLTISSLQPEDFATYYCQQFNAYPLTFGGGTKVEIKRTAAA
In assay [2], B10 yielded a TRBC2 Binding of 298 TRF units.

B11: CP_01_C11 (scFv, not shown: small tags and cut ends)
scFv: QVQLVESGAEVKKPGASVKVSCKASGYTFTGYYMHWVRQAPGQGLEWMGRINPNSGGTNYAQKFQGRVTMTRDTSISTAYMELSRLRSDDTAVYYCASGGAGWNWGQGTMVTVSSGGGGSGGGGSGGGASNFMLTQPHSVSESPGKTATISCTRSSGSIASNYVQWYQQRPGSAPTTVIYEDNQRPFGVPDRFSGSIDSSSNSASLTISGLKTEDEADYYCQSHDSSNVVFGGGTQLTVLGQPAA
In assay [2], B11 registered a TRBC2 Binding of 622 TRF units.

Values taken from patent US20250314655A1.
